T1: murine IL-17 (mouse, UniProt Q62386 26-158)
T1 construct: also called mouse IL-17
T1 sequence (looked up): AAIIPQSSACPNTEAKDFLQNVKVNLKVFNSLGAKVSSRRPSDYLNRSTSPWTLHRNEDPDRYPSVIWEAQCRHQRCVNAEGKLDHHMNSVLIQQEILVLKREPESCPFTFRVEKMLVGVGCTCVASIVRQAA

T2: murine TNF (mouse, UniProt P06804 80-235)
T2 construct: also called mouse TNFα; TNFα
T2 sequence (looked up): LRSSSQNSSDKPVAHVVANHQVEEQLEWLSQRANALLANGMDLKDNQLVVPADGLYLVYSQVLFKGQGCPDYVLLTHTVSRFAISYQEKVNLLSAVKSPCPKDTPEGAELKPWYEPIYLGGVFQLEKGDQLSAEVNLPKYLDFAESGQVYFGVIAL

B1: anti-mouse TNF/IL-17 DVD-Ig protein 8C11/10F7M11 (bispecific antibody, human IgG1, kappa, L234A L235A)
heavy: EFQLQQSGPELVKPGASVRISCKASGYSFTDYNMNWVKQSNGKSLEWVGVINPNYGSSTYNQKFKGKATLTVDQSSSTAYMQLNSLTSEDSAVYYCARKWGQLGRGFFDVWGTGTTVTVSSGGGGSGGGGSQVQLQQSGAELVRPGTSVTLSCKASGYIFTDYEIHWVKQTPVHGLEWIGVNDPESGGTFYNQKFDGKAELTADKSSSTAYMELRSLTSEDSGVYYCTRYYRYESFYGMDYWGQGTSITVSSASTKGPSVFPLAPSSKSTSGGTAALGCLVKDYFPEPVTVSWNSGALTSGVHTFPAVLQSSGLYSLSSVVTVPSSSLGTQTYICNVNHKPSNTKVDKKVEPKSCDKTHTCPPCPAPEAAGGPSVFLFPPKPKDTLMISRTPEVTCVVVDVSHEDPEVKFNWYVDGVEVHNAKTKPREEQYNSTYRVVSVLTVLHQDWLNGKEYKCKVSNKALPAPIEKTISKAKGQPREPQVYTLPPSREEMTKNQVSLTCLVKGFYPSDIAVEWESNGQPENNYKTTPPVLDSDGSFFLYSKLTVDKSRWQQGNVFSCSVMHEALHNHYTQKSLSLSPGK
light: QIVLSQSPAILSASPGEKVTMTCRASSSVSYMHWFQQKPGSSPKPWIYATSNLASGVPARFSGSGSGTSYSLTISRVEAEDAATYYCQQWSSSPLTFGAGTKLELKRGGSGGGGSGQIVLTQSPAIMSASPGEKVTMTCSASSSISYIYWFQQKPGTSPKRWIYATFELASGVPARFSGSGSGTSYSLTISSMEAEDAATYYCHQRSSYPWTFGGGSKLEIKRTVAAPSVFIFPPSDEQLKSGTASVVCLLNNFYPREAKVQWKVDNALQSGNSQESVTEQDSKDSTYSLSSTLTLSKADYEKHKVYACEVTHQGLSSPVTKSFNRGEC
notes: The constant regions of the protein actually assayed are therefore uncertain; also called 8C11/10F7-DVD-Ig protein; 8C11/10F7M11 anti-TNF/IL-17 DVD-Ig protein
B2: anti-murine TNF antibody 8C11 (antibody, mouse IgG2c, V domains shown)
VH: EFQLQQSGPELVKPGASVRISCKASGYSFTDYNMNWVKQSNGKSLEWVGVINPNYGSSTYNQKFKGKATLTVDQSSSTAYMQLNSLTSEDSAVYYCARKWGQLGRGFFDVWGTGTTVTVSS
VL: QIVLSQSPAILSASPGEKVTMTCRASSSVSYMHWFQQKPGSSPKPWIYATSNLASGVPARFSGSGSGTSYSLTISRVEAEDAATYYCQQWSSSPLTFGAGTKLELKR
notes: also called 8C11 anti-TNF antibody; anti-TNFα antibody 8C11

Experiments:
murine IL-17 = target: T1, murine IL-17; assay: assay not described; table titled 'Source And Binding Information'
murine TNF = target: T2, murine TNF; assay: as above

| Binder | IC50 (murine IL-17) [nM] | IC50 (murine TNF) [nM] |
| --- | --- | --- |
| B1 | 0.13 | 2 |
| B2 |  | 2 |

Source: patent US20160000936A1 (AbbVie / Abbott, published 2016)
